This passage reports Kd and EC50 results from patent CN111196852A (SICHUAN KELUN BOTAI BIOMEDICAL CO LTD; ANYUAN MEDICINE TECH …, dated 2020).

The target of one assay is T1, 人TIGIT-His (human, UniProt Q495A1 22-141, limits assumed).
T1 construct: Loaded on Ni-NTA sensors in the BLI runs; also called Human TIGIT(His tag); not shown: His tag
T1 sequence (looked up): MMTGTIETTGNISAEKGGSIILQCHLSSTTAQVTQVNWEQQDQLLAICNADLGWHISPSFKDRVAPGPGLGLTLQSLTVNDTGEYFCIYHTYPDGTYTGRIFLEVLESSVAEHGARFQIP
Put plainly: BLI (ForteBio Octet QK), Human TIGIT(His tag) on Ni-NTA sensor, antibody 3.125-100 nM; order of magnitude only.

The target of another assay is T2, 人TIGIT (human, UniProt Q495A1 22-141, limits assumed).
T2 construct: also called 人TIGIT抗原
T2 sequence (looked up): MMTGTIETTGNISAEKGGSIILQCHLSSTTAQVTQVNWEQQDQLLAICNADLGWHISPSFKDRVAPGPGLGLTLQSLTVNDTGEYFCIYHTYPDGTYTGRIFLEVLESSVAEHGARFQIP
In words: ELISA, human TIGIT coated, HRP goat anti-mouse IgG. (In general: ELISA stands for enzyme-linked immunosorbent assay.)

B1: 鼠单克隆抗体Mab21 (antibody, mouse IgG2b, V domains shown)
VH: EVQLQQSGAELVKPGASVRLSCTASGFNIKDTYINWVKQRPEQGLEWIGRIDPANGDTKYAPKFQGKATITTDTSSNTAYLQLSSLTSEDTAVYYCPKSGDYGWYFDVWGAGTTVTVSS
VL: DIVLTQSPASLSVTPGDSVSLSCRASQSISNNLHWYQQKSHESPRLLIKYASQSISGIPSRFSGSGSGTYFTLSINSVETEDFGMYFCQQSNSWLTFGAGTKLELKR
notes: Mouse IgG2b (Kappa), purified from hybridoma #21 on protein G; also called 杂交瘤细胞株#21
The Kd is the equilibrium constant for the complex coming apart. In general, EC50 refers to the concentration that produces a half-maximal response. The low end stands for higher potency in that assay, the high end for lower potency in that assay. Molecule B1 yielded a Kd with 人TIGIT-His of roughly 0.01 nM. In the assay with 人TIGIT, this molecule came in with a 50% effective concentration (EC50) of roughly 0.018 nM.

B2: 鼠单克隆抗体Mab7 (antibody, mouse IgG1, V domains shown)
VH: QVQLQQSGAELVSPGTSVKVSCKASGYAFTNYLIEWIYQRPGQGLEWIGVINPGSGGTIYNEKFKGKATLTADKSSNIAYLQLSSLTSDDSAVYFCAGSYGSSYTFDYWGQGTTLTVSS
VL: DIVMTQSHKFLSTSVGDSVSITCKASQHVSTAVVWYQQKPGQSPKLLIYSPSYRYTGVPDRFTGSGSGTDFTFTISSVQAEDLAVYYCHQHYSTPWTFGGGTKLEIKR
notes: Mouse IgG1 (Kappa), purified from hybridoma #7 on protein G; also called 杂交瘤细胞株#7
In the case of B2, in the assay with 人TIGIT-His, the Kd is roughly 0.001 nM. In the assay with 人TIGIT, the EC50 is roughly 0.018 nM.
